From patent publication US20050064507

Key:
[1] = tested on: T1, ADD2 peptide KKKFRTPSFLKKSKK (SEQ ID NO:95)
T1 sequence: KKKFRTPSFLKKSKK

[2] = tested on: T2, DGKI peptide NRKKKRTSFKRKA (SEQ ID NO:79)
T2 sequence: NRKKKRTSFKRKA

[3] = tested on: T3, FLJ20574 peptide GENVLKKSMKSRVKG (SEQ ID NO:113)
T3 sequence: GENVLKKSMKSRVKG

[4] = tested on: T4, GABA A receptor beta 2 peptide ERHVAQKKSRLRRRASQLKI (SEQ ID NO:142)
T4 sequence: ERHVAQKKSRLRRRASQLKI

[5] = tested on: T5, GABRB2 peptide QKKSRLRRRASQLKI (SEQ ID NO:84)
T5 sequence: QKKSRLRRRASQLKI

[6] = tested on: T6, MLK3 peptide QQVDRERPHVRRRRGTFKRS (SEQ ID NO:128)
T6 sequence: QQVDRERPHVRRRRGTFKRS

[7] = tested on: T7, MYBPC3 peptide LLKKRDSFRTPRDSKLE (SEQ ID NO:103)
T7 sequence: LLKKRDSFRTPRDSKLE

[8] = tested on: T8, NF1 peptide AGSFKRNSIKKIV (SEQ ID NO:102)
T8 sequence: AGSFKRNSIKKIV

[9] = tested on: T9, NIK peptide TEGKMARVAWKGKRRSKARK (SEQ ID NO:164)
T9 sequence: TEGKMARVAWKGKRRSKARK

[10] = tested on: T10, NMDAR1 peptide RAITSTLASSFKRRR (SEQ ID NO:122)
T10 sequence: RAITSTLASSFKRRR

[11] = tested on: T11, NR4A3 peptide KEVVRTDSLKGRRGR (SEQ ID NO:109)
T11 sequence: KEVVRTDSLKGRRGR

[12] = tested on: T12, PARIS1 peptide EYLERRASRRRAV (SEQ ID NO:89)
T12 sequence: EYLERRASRRRAV

[13] = tested on: T13, PLD1 peptide KYKAFIRIPIPTRRHTFRRQ (SEQ ID NO:161)
T13 sequence: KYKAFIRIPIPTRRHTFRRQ

[14] = tested on: T14, PPP1R14A peptide QKRHARVTVKYDRRE (SEQ ID NO:107)
T14 sequence: QKRHARVTVKYDRRE

[15] = tested on: T15, PSCDBP peptide LSSMFGTLPRKSRKGSVRKQ (SEQ ID NO:144)
T15 sequence: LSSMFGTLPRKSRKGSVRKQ

[16] = tested on: T16, SDPR peptide EKIKRSSLKKVDSLKK (SEQ ID NO:104)
T16 sequence: EKIKRSSLKKVDSLKK

[17] = tested on: T17, SMARCA5 peptide MAQIERGEARIQRRISIKKA (SEQ ID NO:166)
T17 sequence: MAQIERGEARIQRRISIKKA

[18] = tested on: T18, SPTBN4 peptide EGGDRRASGRRK (SEQ ID NO:110)
T18 sequence: EGGDRRASGRRK

[19] = tested on: T19, Urotensin-2 receptor peptide LYARLARAYRRSQRASFKRA (SEQ ID NO:159)
T19 sequence: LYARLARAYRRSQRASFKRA

[20] = tested on: T20, dag kinase iota peptide NRKKKRTSFKRKA (SEQ ID NO:115)
T20 sequence: NRKKKRTSFKRKA

[21] = tested on: T21, dag kinase iota peptide NRKKKRTSFKRKA (SEQ ID NO:117)
T21 sequence: NRKKKRTSFKRKA

[22] = tested on: T22, peptide AARKKRISVKKKQEQ (SEQ ID NO:8)
T22 sequence: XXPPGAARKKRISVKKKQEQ

[23] = tested on: T23, peptide AINSRETMFHKERFK (SEQ ID NO:67)
T23 sequence: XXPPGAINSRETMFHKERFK

[24] = tested on: T24, peptide ARIIGEKSFRRSVVG (SEQ ID NO:47)
T24 sequence: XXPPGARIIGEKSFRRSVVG

[25] = tested on: T25, peptide AVRDMRQTVAVGVIK (SEQ ID NO:62)
T25 sequence: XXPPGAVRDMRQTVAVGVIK

[26] = tested on: T26, peptide AYIERMNSIHRDLRA (SEQ ID NO:37)
T26 sequence: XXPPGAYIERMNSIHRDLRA

[27] = tested on: T27, peptide EARLGAASLKFGARD (SEQ ID NO:56)
T27 sequence: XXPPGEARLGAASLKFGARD

[28] = tested on: T28, peptide GFAKKIGSGQKTWTF (SEQ ID NO:66)
T28 sequence: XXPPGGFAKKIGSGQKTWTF

[29] = tested on: T29, peptide GLLDRKGSWKKLDDM (SEQ ID NO:35)
T29 sequence: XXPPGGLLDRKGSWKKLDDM

[30] = tested on: T30, peptide HKHSPEKRGSERKEG (SEQ ID NO:52)
T30 sequence: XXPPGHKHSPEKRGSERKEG

[31] = tested on: T31, peptide IKVTHKATGKVMVMK (SEQ ID NO:65)
T31 sequence: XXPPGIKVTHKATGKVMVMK

[32] = tested on: T32, peptide KATTKKRTLRKNDRK (SEQ ID NO:32)
T32 sequence: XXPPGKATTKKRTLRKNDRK

[33] = tested on: T33, peptide KKKFRTPSFLKKSKK (SEQ ID NO:11)
T33 sequence: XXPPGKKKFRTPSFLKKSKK

[34] = tested on: T34, peptide KKKKKRFSFKKSFKL (SEQ ID NO:12)
T34 sequence: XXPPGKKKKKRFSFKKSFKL

[35] = tested on: T35, peptide KNVVKLLSSRRTQDR (SEQ ID NO:57)
T35 sequence: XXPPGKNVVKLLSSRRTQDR

[36] = tested on: T36, peptide KRPGKKGSNKRPGKR (SEQ ID NO:28)
T36 sequence: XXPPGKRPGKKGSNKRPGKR

[37] = tested on: T37, peptide NMEAKKLSKDRMKKY (SEQ ID NO:40)
T37 sequence: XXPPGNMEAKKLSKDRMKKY

[38] = tested on: T38, peptide NRKKKRTSFKRKA (SEQ ID NO:3)
T38 sequence: XXPPGNRKKKRTSFKRKA

[39] = tested on: T39, peptide RKIPKRPGSVHRTPSRQ (SEQ ID NO:7)
T39 sequence: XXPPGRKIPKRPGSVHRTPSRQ

[40] = tested on: T40, peptide RKKRKKKSSKSLAHAGVALA (SEQ ID NO:31)
T40 sequence: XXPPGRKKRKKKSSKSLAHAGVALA

[41] = tested on: T41, ribosomal protein S6 peptide AKRRRLSSLRASTSK (SEQ ID NO:120)
T41 sequence: AKRRRLSSLRASTSK

[42] = tested on: T42, titin peptide PFEVVWYKDKRQLRSSKKYK (SEQ ID NO:160)
T42 sequence: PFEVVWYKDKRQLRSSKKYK

Substance: PKC-delta
- in vitro phosphorylation (% of best substrate) [1]: 25
- in vitro phosphorylation (% of best substrate) [2]: 66
- in vitro phosphorylation (% of best substrate) [3]: 4
- in vitro phosphorylation, 1 uM peptide (% of best substrate) [4]: 30
- in vitro phosphorylation, 10 uM peptide (% of best substrate) [4]: 36
- in vitro phosphorylation (% of best substrate) [5]: 34
- in vitro phosphorylation, 1 uM peptide (% of best substrate) [6]: 46
- in vitro phosphorylation, 10 uM peptide (% of best substrate) [6]: 57
- in vitro phosphorylation (% of best substrate) [7]: 12
- in vitro phosphorylation (% of best substrate) [8]: 14
- in vitro phosphorylation, 1 uM peptide (% of best substrate) [9]: 18
- in vitro phosphorylation, 10 uM peptide (% of best substrate) [9]: 26
- in vitro phosphorylation, 1 uM peptide (% of best substrate) [10]: 55
- in vitro phosphorylation, 10 uM peptide (% of best substrate) [10]: 24
- in vitro phosphorylation (% of best substrate) [11]: 7
- in vitro phosphorylation (% of best substrate) [12]: 20
- in vitro phosphorylation, 1 uM peptide (% of best substrate) [13]: 22
- in vitro phosphorylation, 10 uM peptide (% of best substrate) [13]: 14
- in vitro phosphorylation (% of best substrate) [14]: 10
- in vitro phosphorylation, 1 uM peptide (% of best substrate) [15]: 35
- in vitro phosphorylation, 10 uM peptide (% of best substrate) [15]: 28
- in vitro phosphorylation (% of best substrate) [16]: 10
- in vitro phosphorylation, 1 uM peptide (% of best substrate) [17]: 13
- in vitro phosphorylation, 10 uM peptide (% of best substrate) [17]: 29
- in vitro phosphorylation (% of best substrate) [18]: 5
- in vitro phosphorylation, 1 uM peptide (% of best substrate) [19]: 15
- in vitro phosphorylation, 10 uM peptide (% of best substrate) [19]: 12
- in vitro phosphorylation, 1 uM peptide (% of best substrate) [20]: 94
- in vitro phosphorylation, 10 uM peptide (% of best substrate) [20]: 99
- in vitro phosphorylation, 1 uM peptide (% of best substrate) [21]: 100
- in vitro phosphorylation, 10 uM peptide (% of best substrate) [21]: 79
- in vitro phosphorylation (% of best substrate) [22]: 35
- in vitro phosphorylation (% of best substrate) [23]: 1
- in vitro phosphorylation (% of best substrate) [24]: 2
- in vitro phosphorylation (% of best substrate) [25]: 1
- in vitro phosphorylation (% of best substrate) [26]: 3
- in vitro phosphorylation (% of best substrate) [27]: 2
- in vitro phosphorylation (% of best substrate) [28]: 1
- in vitro phosphorylation (% of best substrate) [29]: 4
- in vitro phosphorylation (% of best substrate) [30]: 2
- in vitro phosphorylation (% of best substrate) [31]: 1
- in vitro phosphorylation (% of best substrate) [32]: > 5
- in vitro phosphorylation (% of best substrate) [33]: 25
- in vitro phosphorylation (% of best substrate) [34]: 24
- in vitro phosphorylation (% of best substrate) [35]: 2
- in vitro phosphorylation (% of best substrate) [36]: 8
- in vitro phosphorylation (% of best substrate) [37]: 3
- in vitro phosphorylation (% of best substrate) [38]: 66
- in vitro phosphorylation (% of best substrate) [39]: 38
- in vitro phosphorylation (% of best substrate) [40]: > 5
- in vitro phosphorylation, 1 uM peptide (% of best substrate) [41]: 64
- in vitro phosphorylation, 10 uM peptide (% of best substrate) [41]: 32
- in vitro phosphorylation, 1 uM peptide (% of best substrate) [42]: 25
- in vitro phosphorylation, 10 uM peptide (% of best substrate) [42]: 31
